Results published in patent US20140147418A1.

Molecular target: B7.1 on mouse macrophages (CRL-2751) (mouse) (UniProt Q00609)
Test: flow cytometry on mouse macrophages stained with FITC anti-B7-1 after medium from naive HEK-293 cells

Chain of UniProt Q00609 (Q00609 38-306): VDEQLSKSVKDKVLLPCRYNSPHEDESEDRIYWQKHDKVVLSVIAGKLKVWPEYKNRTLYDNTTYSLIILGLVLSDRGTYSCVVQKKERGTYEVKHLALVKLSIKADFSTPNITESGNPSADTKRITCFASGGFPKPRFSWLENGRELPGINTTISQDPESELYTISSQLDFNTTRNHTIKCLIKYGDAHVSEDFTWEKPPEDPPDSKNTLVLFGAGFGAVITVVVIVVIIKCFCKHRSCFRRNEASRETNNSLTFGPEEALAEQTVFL

percent of macrophages B7-positive in the absence of CTLA4IgG: 18%
Substance: Armenian hamster IgG FITC-conjugated anti B7-1 (Santa Cruz Biotechnology) (antibody)
